The Human Domainome abundance scans (Beltran et al. 2025)
± gives the uncertainty stated by the source.

B1: Ankyrin-1, residues 1405 to 1484; numbered along this chain, P16157 (parent)
chain: MKMAVISEHLGLSWAELARELQFSVEDINRIRVENPNSLLEQSVALLNLWVIREGQNANMENLYTALQSIDRGEIVNMLE

Variants of: B1
Assay: abundance fitness (aPCA) (normalised: wild type 0, dead -1); higher = more abundant; growth selection in yeast, the domain comes from the species named
Conditions: Homo sapiens

| Variant | abundance fitness |
| --- | --- |
| Y64N | 0.087 ± 0.2 |
| Y64T | -0.049 ± 0.1 |
| Y64W | -0.531 ± 0.084 |
| Y64R | -0.407 ± 0.056 |
| Y64M | -0.185 ± 0.11 |
| S24Y | -0.856 ± 0.26 |
| S24L | -0.776 ± 0.12 |
| S24Q | -0.195 ± 0.088 |
| V5R | -0.521 ± 0.062 |
| V5S | -0.361 ± 0.062 |
| V5M | -0.092 ± 0.11 |
| V5C | -0.18 ± 0.087 |
| R32Y | -0.43 ± 0.15 |
| R32E | 0.031 ± 0.05 |
| R32C | -0.13 ± 0.19 |
| E74D | 0.16 ± 0.16 |
| E74R | -0.65 ± 0.092 |
| E74P | -0.264 ± 0.1 |
| E74A | -0.364 ± 0.095 |
| E8T | -0.162 ± 0.08 |
| E8L | -0.383 ± 0.067 |
| E8A | -0.175 ± 0.064 |
| E8N | -0.06 ± 0.16 |
| E8P | -0.24 ± 0.1 |

| Variant | abundance fitness |
| --- | --- |
| E8D | -0.3 ± 0.12 |
| E8G | -0.273 ± 0.039 |
| V25Y | 0.143 ± 0.097 |
| V25N | 0.114 ± 0.14 |
| A66D | -0.884 ± 0.15 |
| A66M | -0.332 ± 0.2 |
| A66W | -0.99 ± 0.32 |
| A66S | -0.26 ± 0.069 |
| A66Q | -0.402 ± 0.21 |
| A66C | 0.016 ± 0.07 |
| S13T | -0.472 ± 0.18 |
| T65V | -0.153 ± 0.053 |
| T65L | -0.072 ± 0.049 |
| T65H | -0.05 ± 0.1 |
| E54N | -0.043 ± 0.091 |
| E54T | -0.455 ± 0.098 |
| E54V | -0.412 ± 0.061 |
| I28P | -0.58 ± 0.14 |
| I28T | -0.43 ± 0.11 |
| I28K | -0.686 ± 0.18 |
| I28C | -0.198 ± 0.087 |
| I28Q | -0.577 ± 0.22 |
| I70S | -0.604 ± 0.13 |
| I70V | -0.193 ± 0.054 |

| Variant | abundance fitness |
| --- | --- |
| I70Y | -0.152 ± 0.25 |
| Q22N | -0.077 ± 0.22 |
| Q22M | -0.008 ± 0.048 |
| Q22E | -0.043 ± 0.071 |
| L39T | 0.116 ± 0.16 |
| L39W | -0.262 ± 0.09 |
| L39M | -0.075 ± 0.15 |
| N57D | -0.072 ± 0.15 |
| N57R | -0.191 ± 0.11 |
| N57F | -0.437 ± 0.19 |
| N57L | -0.108 ± 0.066 |
| N57T | -0.154 ± 0.16 |
| N57M | -0.075 ± 0.13 |
| N57G | 0.017 ± 0.058 |
| N57E | 0.163 ± 0.15 |
| N57W | -0.175 ± 0.08 |
| K2F | -0.22 ± 0.11 |
| K2Q | -0.155 ± 0.11 |
| K2V | -0.089 ± 0.057 |
| K2E | 0.095 ± 0.1 |
| K2R | -0.045 ± 0.067 |
| K2S | -0.4 ± 0.087 |
| M3G | -0.533 ± 0.073 |
| M3H | -0.233 ± 0.26 |

| Variant | abundance fitness |
| --- | --- |
| M3E | -0.275 ± 0.093 |
| M3A | -0.435 ± 0.08 |
| D27N | -0.49 ± 0.22 |
| D27M | -0.213 ± 0.14 |
| D27P | -0.822 ± 0.23 |
| D27R | -0.46 ± 0.071 |
| D27K | -0.508 ± 0.15 |
| V44E | -0.058 ± 0.12 |
| V44T | 0.161 ± 0.081 |
| V44D | 0.112 ± 0.095 |
| V44K | 0.327 ± 0.12 |
| V44I | -0.217 ± 0.12 |
| L21I | -0.425 ± 0.38 |
| L21A | -1.02 ± 0.28 |
| L21F | -0.69 ± 0.29 |
| N35T | -0.3 ± 0.12 |
| N35L | -0.491 ± 0.12 |
| N35G | -0.858 ± 0.21 |
| N35A | -0.304 ± 0.095 |
| N35Q | -0.247 ± 0.16 |
| W50A | -0.902 ± 0.2 |
| W50P | -1 ± 0.26 |
| W50V | -0.923 ± 0.15 |
| W50L | -0.368 ± 0.082 |

| Variant | abundance fitness |
| --- | --- |
| W50K | -0.655 ± 0.18 |
| E26S | -0.071 ± 0.055 |
| E26P | -0.371 ± 0.089 |
| L12G | 0.104 ± 0.082 |
| L12D | -0.124 ± 0.16 |
| L12T | 0.063 ± 0.18 |
| L12Q | -0.233 ± 0.24 |
| L12C | 0.3 ± 0.5 |
| L12R | -0.038 ± 0.09 |
| L12W | -0.431 ± 0.2 |
| Q42A | -0.257 ± 0.064 |
| Q42S | -0.383 ± 0.079 |
| Q42T | -0.723 ± 0.2 |
| Q42P | -1.04 ± 0.23 |
| Q42R | -0.152 ± 0.068 |
| S69D | -0.06 ± 0.087 |
| S69M | -0.133 ± 0.089 |
| S69F | -0.341 ± 0.11 |
| S69E | -0.042 ± 0.068 |
| S69H | 0.342 ± 0.18 |
| S69V | 0.029 ± 0.044 |
| S38F | -0.345 ± 0.17 |
| S38L | -0.781 ± 0.16 |
| S38R | -0.478 ± 0.08 |

| Variant | abundance fitness |
| --- | --- |
| S38T | -0.291 ± 0.13 |
| S7Y | -0.242 ± 0.14 |
| S7G | -0.176 ± 0.04 |
| S7I | -0.396 ± 0.1 |
| S7Q | -0.389 ± 0.12 |
| I52G | -0.351 ± 0.35 |
| A45Q | -0.139 ± 0.1 |
| A45M | -0.173 ± 0.12 |
| A45V | -0.513 ± 0.065 |
| A45W | -0.921 ± 0.17 |
| A45L | -0.627 ± 0.088 |
| P36V | -0.666 ± 0.12 |
| P36K | -0.267 ± 0.16 |
| E20P | -0.996 ± 0.17 |
| E20R | -0.127 ± 0.053 |
| E20Q | 0.069 ± 0.12 |
| E20N | -0.087 ± 0.14 |
| E20I | -0.135 ± 0.12 |
| D71R | 0.008 ± 0.049 |
| D71F | -0.627 ± 0.2 |
| D71C | -0.144 ± 0.094 |
| D71E | 0.075 ± 0.075 |
| D71L | -0.811 ± 0.095 |
| D71V | -0.83 ± 0.12 |

| Variant | abundance fitness |
| --- | --- |
| D71Q | -0.274 ± 0.11 |
| G11K | -0.362 ± 0.17 |
| G11R | -0.41 ± 0.084 |
| G11Q | -0.276 ± 0.17 |
| G11C | -0.737 ± 0.2 |
| G11M | -0.447 ± 0.13 |
| G11I | -0.726 ± 0.23 |
| I75T | -0.342 ± 0.13 |
| I75E | -0.766 ± 0.23 |
| I75Y | -0.692 ± 0.36 |
| I75P | -0.546 ± 0.14 |
| V76W | -0.388 ± 0.044 |
| V76G | -0.566 ± 0.069 |
| V76C | -0.051 ± 0.095 |
| V76P | -0.234 ± 0.12 |
| V76F | -0.528 ± 0.27 |
| V76Y | -0.264 ± 0.11 |
| V76A | -0.423 ± 0.08 |
| L67W | -0.999 ± 0.19 |
| L67H | -0.911 ± 0.34 |
| L67Q | -0.809 ± 0.26 |
| V51T | 0.068 ± 0.07 |
| V51L | 0.053 ± 0.077 |
